Experimental data reported in paper doi:10.1101/2019.12.18.881029 (bioRxiv, 2019).

B1: 101 (antibody, V domains shown)
VH: QSVKESEGGLFKPTDTLTLTCTVSGFSLSRYGVSWVRQAPGSGLQWIGAIGETGRAYYANWAKSRSTITRNTNVNTVTLKMTSLTAADTATYFCARGEEFNNGWGAFNIWGPGTLVTVSS
VL: AYDMTQTPASVSEPVGGTVTIKCQASENIYTSLAWYQQKPGQPPKLLIYSASTLASGVPSRFKGSGSGTEFTLTISDLECADAASYYCQQGFATSNVENPFGGGTEVVVK
B2: 810 (antibody, V domains shown)
VH: QSVKESEGGLFKPADTLTLTCTVSGFSLSRYGVSWVRQAPGNGLEWIGTIGEAGRAYYANWARSRSTITRTTNLNTVTLTMTSLTAADTATYFCARGEVFNNGWGAFNIWGPGTLVTVSS
VL: AYDMTQTPASVSEPVGGTVTIKCQASESIYSGLAWYQQKPGQPPKLLIYQASTLASGVSSRFKGSGSGTDFTLAISDLECADAATYYCQQGFGTSNVENPFGGGSEVVVK
B3: 877 (antibody, V domains shown)
VH: QSVKESEGGLFKPTDTLTLTCTVSGFSLSRYGVTWVRQAPGNGLQWIGTIGETGRSYYASWAKSRSTVTRNTNENTVTLKMTSLTAADTATYFCARGELFNNGWGAFNIWGPGTLVTVSS
VL: AYDMTQTPASVSEPVGGTVTIKCQASENIYSSLAWYQQKPGQPPKLLIYSASTLASGVSSRFKGSGSGTEFTLTISGVQCEDAATYYCQQGFGTNNVENPFGGGTEVVVK

target: recombinant human TNFa (Shanghai Primegene Bi-Tech) (Homo sapiens, UniProt P01375)
Sequence (P01375 whole entry): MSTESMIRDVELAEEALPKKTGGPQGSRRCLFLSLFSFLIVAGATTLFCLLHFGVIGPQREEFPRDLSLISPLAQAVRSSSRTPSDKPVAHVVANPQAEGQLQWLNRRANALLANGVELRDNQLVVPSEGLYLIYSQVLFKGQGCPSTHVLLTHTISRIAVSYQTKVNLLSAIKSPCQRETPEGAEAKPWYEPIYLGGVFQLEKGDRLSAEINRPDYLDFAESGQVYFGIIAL

Binding result, binds:
B1, B2, B3
